From patent US20220168396A1, “MULTI-RECEPTOR AGONIST AND MEDICAL USE THEREOF” (published 2022)
Square brackets hold non-standard residues; d marks the D form. Ends that are not written are not given here. Aib = CC(C)(N)C(=O)O

T1: human glucose-dependent insulinotropic peptide receptor (human, UniProt P48546)
T1 sequence: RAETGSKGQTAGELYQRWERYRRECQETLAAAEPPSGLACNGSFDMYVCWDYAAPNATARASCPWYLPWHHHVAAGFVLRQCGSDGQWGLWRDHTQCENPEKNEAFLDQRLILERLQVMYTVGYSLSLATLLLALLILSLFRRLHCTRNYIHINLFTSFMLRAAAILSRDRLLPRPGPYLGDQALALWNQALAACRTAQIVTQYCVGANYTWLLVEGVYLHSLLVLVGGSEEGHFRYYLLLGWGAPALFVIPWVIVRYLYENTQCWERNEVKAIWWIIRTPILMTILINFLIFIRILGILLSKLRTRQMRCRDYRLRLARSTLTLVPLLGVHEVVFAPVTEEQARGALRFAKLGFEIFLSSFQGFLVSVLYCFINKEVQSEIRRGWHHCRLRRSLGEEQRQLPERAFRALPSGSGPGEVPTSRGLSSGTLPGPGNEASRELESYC

B1: Compound No. 23 (peptide)
peptide: Y[Aib]EGTFTSDYSIYLEKEAAKEFVNWLLAQKPSSGAPPPSK-NH2
modifications: N-terminus assumed
SMILES: CC[C@H](C)[C@H](NC(=O)[C@H](CO)NC(=O)[C@H](Cc1ccc(O)cc1)NC(=O)[C@H](CC(=O)O)NC(=O)[C@H](CO)NC(=O)[C@@H](NC(=O)[C@H](Cc1ccccc1)NC(=O)[C@@H](NC(=O)CNC(=O)[C@H](CCC(=O)O)NC(=O)C(C)(C)NC(=O)[C@@H](N)Cc1ccc(O)cc1)[C@@H](C)O)[C@@H](C)O)C(=O)N[C@@H](Cc1ccc(O)cc1)C(=O)N[C@@H](CC(C)C)C(=O)N[C@@H](CCC(=O)O)C(=O)N[C@@H](CCCCN)C(=O)N[C@@H](CCC(=O)O)C(=O)N[C@@H](C)C(=O)N[C@@H](C)C(=O)N[C@@H](CCCCN)C(=O)N[C@@H](CCC(=O)O)C(=O)N[C@@H](Cc1ccccc1)C(=O)N[C@H](C(=O)N[C@@H](CC(N)=O)C(=O)N[C@@H](Cc1c[nH]c2ccccc12)C(=O)N[C@@H](CC(C)C)C(=O)N[C@@H](CC(C)C)C(=O)N[C@@H](C)C(=O)N[C@@H](CCC(N)=O)C(=O)N[C@@H](CCCCN)C(=O)N1CCC[C@H]1C(=O)N[C@@H](CO)C(=O)N[C@@H](CO)C(=O)NCC(=O)N[C@@H](C)C(=O)N1CCC[C@H]1C(=O)N1CCC[C@H]1C(=O)N1CCC[C@H]1C(=O)N[C@@H](CO)C(=O)N[C@@H](CCCCN)C(N)=O)C(C)C
B2: Compound No. 65 (peptide)
peptide: Y[Aib]EGTFTSDYSIYLEKEAAKEFIQWLLAGGPSSGAPPPS-NH2
modifications: N-terminus assumed
SMILES: CC[C@H](C)[C@H](NC(=O)[C@H](Cc1ccccc1)NC(=O)[C@H](CCC(=O)O)NC(=O)[C@H](CCCCN)NC(=O)[C@H](C)NC(=O)[C@H](C)NC(=O)[C@H](CCC(=O)O)NC(=O)[C@H](CCCCN)NC(=O)[C@H](CCC(=O)O)NC(=O)[C@H](CC(C)C)NC(=O)[C@H](Cc1ccc(O)cc1)NC(=O)[C@@H](NC(=O)[C@H](CO)NC(=O)[C@H](Cc1ccc(O)cc1)NC(=O)[C@H](CC(=O)O)NC(=O)[C@H](CO)NC(=O)[C@@H](NC(=O)[C@H](Cc1ccccc1)NC(=O)[C@@H](NC(=O)CNC(=O)[C@H](CCC(=O)O)NC(=O)C(C)(C)NC(=O)[C@@H](N)Cc1ccc(O)cc1)[C@@H](C)O)[C@@H](C)O)[C@@H](C)CC)C(=O)N[C@@H](CCC(N)=O)C(=O)N[C@@H](Cc1c[nH]c2ccccc12)C(=O)N[C@@H](CC(C)C)C(=O)N[C@@H](CC(C)C)C(=O)N[C@@H](C)C(=O)NCC(=O)NCC(=O)N1CCC[C@H]1C(=O)N[C@@H](CO)C(=O)N[C@@H](CO)C(=O)NCC(=O)N[C@@H](C)C(=O)N1CCC[C@H]1C(=O)N1CCC[C@H]1C(=O)N1CCC[C@H]1C(=O)N[C@@H](CO)C(N)=O
B3: Compound No. 64 (peptide)
peptide: Y[Aib]EGTFTSDYSIYLEKEAAKEFVQWLLAGGPSSGAPPPS-NH2
modifications: N-terminus assumed
SMILES: CC[C@H](C)[C@H](NC(=O)[C@H](CO)NC(=O)[C@H](Cc1ccc(O)cc1)NC(=O)[C@H](CC(=O)O)NC(=O)[C@H](CO)NC(=O)[C@@H](NC(=O)[C@H](Cc1ccccc1)NC(=O)[C@@H](NC(=O)CNC(=O)[C@H](CCC(=O)O)NC(=O)C(C)(C)NC(=O)[C@@H](N)Cc1ccc(O)cc1)[C@@H](C)O)[C@@H](C)O)C(=O)N[C@@H](Cc1ccc(O)cc1)C(=O)N[C@@H](CC(C)C)C(=O)N[C@@H](CCC(=O)O)C(=O)N[C@@H](CCCCN)C(=O)N[C@@H](CCC(=O)O)C(=O)N[C@@H](C)C(=O)N[C@@H](C)C(=O)N[C@@H](CCCCN)C(=O)N[C@@H](CCC(=O)O)C(=O)N[C@@H](Cc1ccccc1)C(=O)N[C@H](C(=O)N[C@@H](CCC(N)=O)C(=O)N[C@@H](Cc1c[nH]c2ccccc12)C(=O)N[C@@H](CC(C)C)C(=O)N[C@@H](CC(C)C)C(=O)N[C@@H](C)C(=O)NCC(=O)NCC(=O)N1CCC[C@H]1C(=O)N[C@@H](CO)C(=O)N[C@@H](CO)C(=O)NCC(=O)N[C@@H](C)C(=O)N1CCC[C@H]1C(=O)N1CCC[C@H]1C(=O)N1CCC[C@H]1C(=O)N[C@@H](CO)C(N)=O)C(C)C
B4: Compound No. 24 (peptide)
peptide: Y[Aib]EGTFTSDYSIYLEKIAAQEFVNWLLAQKPSSGAPPPSK-NH2
modifications: N-terminus assumed
SMILES: CC[C@H](C)[C@H](NC(=O)[C@H](CCCCN)NC(=O)[C@H](CCC(=O)O)NC(=O)[C@H](CC(C)C)NC(=O)[C@H](Cc1ccc(O)cc1)NC(=O)[C@@H](NC(=O)[C@H](CO)NC(=O)[C@H](Cc1ccc(O)cc1)NC(=O)[C@H](CC(=O)O)NC(=O)[C@H](CO)NC(=O)[C@@H](NC(=O)[C@H](Cc1ccccc1)NC(=O)[C@@H](NC(=O)CNC(=O)[C@H](CCC(=O)O)NC(=O)C(C)(C)NC(=O)[C@@H](N)Cc1ccc(O)cc1)[C@@H](C)O)[C@@H](C)O)[C@@H](C)CC)C(=O)N[C@@H](C)C(=O)N[C@@H](C)C(=O)N[C@@H](CCC(N)=O)C(=O)N[C@@H](CCC(=O)O)C(=O)N[C@@H](Cc1ccccc1)C(=O)N[C@H](C(=O)N[C@@H](CC(N)=O)C(=O)N[C@@H](Cc1c[nH]c2ccccc12)C(=O)N[C@@H](CC(C)C)C(=O)N[C@@H](CC(C)C)C(=O)N[C@@H](C)C(=O)N[C@@H](CCC(N)=O)C(=O)N[C@@H](CCCCN)C(=O)N1CCC[C@H]1C(=O)N[C@@H](CO)C(=O)N[C@@H](CO)C(=O)NCC(=O)N[C@@H](C)C(=O)N1CCC[C@H]1C(=O)N1CCC[C@H]1C(=O)N1CCC[C@H]1C(=O)N[C@@H](CO)C(=O)N[C@@H](CCCCN)C(N)=O)C(C)C
B5: Compound No. 1 (peptide)
peptide: H[Aib]EGTFTSDVSSYLEEEAAKEFIAWLVRGGPSSGAPPPSK-NH2
modifications: N-terminus assumed
SMILES: CC[C@H](C)[C@H](NC(=O)[C@H](Cc1ccccc1)NC(=O)[C@H](CCC(=O)O)NC(=O)[C@H](CCCCN)NC(=O)[C@H](C)NC(=O)[C@H](C)NC(=O)[C@H](CCC(=O)O)NC(=O)[C@H](CCC(=O)O)NC(=O)[C@H](CCC(=O)O)NC(=O)[C@H](CC(C)C)NC(=O)[C@H](Cc1ccc(O)cc1)NC(=O)[C@H](CO)NC(=O)[C@H](CO)NC(=O)[C@@H](NC(=O)[C@H](CC(=O)O)NC(=O)[C@H](CO)NC(=O)[C@@H](NC(=O)[C@H](Cc1ccccc1)NC(=O)[C@@H](NC(=O)CNC(=O)[C@H](CCC(=O)O)NC(=O)C(C)(C)NC(=O)[C@@H](N)Cc1c[nH]cn1)[C@@H](C)O)[C@@H](C)O)C(C)C)C(=O)N[C@@H](C)C(=O)N[C@@H](Cc1c[nH]c2ccccc12)C(=O)N[C@@H](CC(C)C)C(=O)N[C@H](C(=O)N[C@@H](CCCNC(=N)N)C(=O)NCC(=O)NCC(=O)N1CCC[C@H]1C(=O)N[C@@H](CO)C(=O)N[C@@H](CO)C(=O)NCC(=O)N[C@@H](C)C(=O)N1CCC[C@H]1C(=O)N1CCC[C@H]1C(=O)N1CCC[C@H]1C(=O)N[C@@H](CO)C(=O)N[C@@H](CCCCN)C(N)=O)C(C)C
B6: Compound No. 63 (peptide)
peptide: Y[Aib]EGTFTSDYSIYLEKEAAKEFINWLLAGGPSSGAPPPS-NH2
modifications: N-terminus assumed
SMILES: CC[C@H](C)[C@H](NC(=O)[C@H](Cc1ccccc1)NC(=O)[C@H](CCC(=O)O)NC(=O)[C@H](CCCCN)NC(=O)[C@H](C)NC(=O)[C@H](C)NC(=O)[C@H](CCC(=O)O)NC(=O)[C@H](CCCCN)NC(=O)[C@H](CCC(=O)O)NC(=O)[C@H](CC(C)C)NC(=O)[C@H](Cc1ccc(O)cc1)NC(=O)[C@@H](NC(=O)[C@H](CO)NC(=O)[C@H](Cc1ccc(O)cc1)NC(=O)[C@H](CC(=O)O)NC(=O)[C@H](CO)NC(=O)[C@@H](NC(=O)[C@H](Cc1ccccc1)NC(=O)[C@@H](NC(=O)CNC(=O)[C@H](CCC(=O)O)NC(=O)C(C)(C)NC(=O)[C@@H](N)Cc1ccc(O)cc1)[C@@H](C)O)[C@@H](C)O)[C@@H](C)CC)C(=O)N[C@@H](CC(N)=O)C(=O)N[C@@H](Cc1c[nH]c2ccccc12)C(=O)N[C@@H](CC(C)C)C(=O)N[C@@H](CC(C)C)C(=O)N[C@@H](C)C(=O)NCC(=O)NCC(=O)N1CCC[C@H]1C(=O)N[C@@H](CO)C(=O)N[C@@H](CO)C(=O)NCC(=O)N[C@@H](C)C(=O)N1CCC[C@H]1C(=O)N1CCC[C@H]1C(=O)N1CCC[C@H]1C(=O)N[C@@H](CO)C(N)=O

molecular target: human glucagon-like peptide-1 receptor (human, UniProt P43220); test: cell-based or functional assay

First: B1
Second: B2
The “Activity for human GLP-1R (EC50 nM), cAMP HTRF” value (“Activity for human GLP-1R” for short) of the first is 4.5-fold higher: 0.059 nM for the first, 0.013 nM for the second.

First: B3
Second: B4
The “Activity for human GLP-1R” value of the first is 4.2-fold lower: 0.02 nM for the first, 0.083 nM for the second.

First: B5
Second: B6
The “Activity for human GLP-1R” value of the first is 2-fold lower: 0.005 nM for the first, 0.01 nM for the second.

molecular target: T1, human glucose-dependent insulinotropic …; test: cell-based or functional assay

B1 and B2 are within 1.5-fold of each other in “Activity for human GIPR (EC50 nM), cAMP HTRF” value (“Activity for human GIPR” below): 0.02 nM for the first, 0.027 nM for the second.

Compared with B3, B4 is 4.1-fold lower in “Activity for human GIPR” value: 0.033 nM for the first, 0.008 nM for the second.

Compared with B5, B6 is lower in “Activity for human GIPR” value: over 10 nM for the first, 0.02 nM for the second.
